B1: tj79C2-H65B (designed binder)
chain: SGSGSREDELFARYLILLAELAAERADIAAERTGDPRVRELARELKRLAQEAAEEVKRDPSSSDVNLALHLIVLAILAAVEALEAAERTGDPEVRELARELVRLAVEAAEEVQRNPSSSDVLKALMLIVLAILQAVQALEAAERTGDPEVRELARELVRLAVEAAEEVQRNPSSKEVYMALLLILIAILEAVLSLLRAERSGDPEKREKARERVREAVERAEEVQRDPSGW
notes: Designed homodimer subunit, after TEV cleavage
B2: tj79C2-H65D (designed binder)
chain: SGSGSREDELQARLLILLIELAAERADIAAERTGDPRVRELARELKRLAQEAAEEVKRDPSSSDVWLALHLIVIAILIAVEALEAAERTGDPEVRELARELVRLAVEAAEEVQRNPSSSDVLKALMLILIAILLLLEALEAAERTGDPEVRELARELVRLAVEAAEEVQRNPSSKEVQMALLLILIAILEAILSLLRAERSGDPEKREKARERVREAVERAEEVQRDPSGW
notes: as for B1
B3: tj79C2-H65E (designed binder)
chain: SGSGSREDELWARLLILLIELAAERADIAAERTGDPRVRELARELKRLAQEAAEEVKRDPSSSDVLLALHLIVIAILIAVEALEAAERTGDPEVRELARELVRLAVEAAEEVQRNPSSSDVLIALMLILIAILLLLEALEAAERTGDPEVRELARELVRLAVEAAEEVQRNPSSKEVQMALLLILIAILEAILSLLRAERSGDPEKREKARERVREAVERAEEVQRDPSGW
notes: as for B1
B4: tj79C2-H69B (designed binder)
chain: SGSGSREDELHARYLILSAELAAERADIAAERTGDPRVRELARELKRLAQEAAEEVKRDPSSSDVNKALLLITHAILIAVAALEAAERTGDPEVRELARELVRLAVEAAEEVQRNPSSSDVNRALFLIMMAIMMAVKALEAAERTGDPEVRELARELVRLAVEAAEEVQRNPSSKEVDMALLLILIAILEAVLSLLRAERSGDPEKREKARERVREAVERAEEVQRDPSGW
notes: as for B1
B5: tj79C2-H65C (designed binder)
chain: SGSGSREDELIARYLILLAELAAERADIAAERTGDPRVRELARELKRLAQEAAEEVKRDPSSSDVFMALHLIVLAIQIAVKALEAAERTGDPEVRELARELVRLAVEAAEEVQRNPSSSDVFLALLLIVTAIMLAVEALEAAERTGDPEVRELARELVRLAVEAAEEVQRNPSSKEVLMALLLILIAILEAVLSLLRAERSGDPEKREKARERVREAVERAEEVQRDPSGW
notes: as for B1
B6: tj79C2-H69A (designed binder)
chain: SGSGSREDELQARLQLLAAELAAEEADIAAERTGDPRVRELARELKRLAQEAAEEVKRDPSSSDVNAALVLITHAIMLAVEALKAAERTGDPEVRELARELVRLAVEAAEEVQRNPSSSDVNKALFLIMMAIITAVTALEAAERTGDPEVRELARELVRLAVEAAEEVQRNPSSKEVDMALLLILIAILEAVLSLLRAERSGDPEKREKARERVREAVERAEEVQRDPSGW
notes: as for B1
B7: tj79C2-H121A (designed binder)
chain: SGSGSREDELIARYQILLAELAAERADIAAERTGDPRVRELARELKRLAQEAAEEVKRDPSSSDVNMALLLILLMIELAVRALEAAERTGDPEVRELARELVRLAVEAAEEVQRNPSSSDVWQALHLIMLAIWAAVAALEAAERTGDPEVRELARELVRLAVEAAEEVQRNPSSKEVYMALLLILIAILEAVLSLLRAERSGDPEKREKARERVREAVERAEEVQRDPSGW
notes: as for B1
B8: SP3 (designed binder)
chain: SGSSEELARESAEAAWRLAQAGTRLMLAWIRGDLKEIAEALIELARAVQELARVAKEYGNDELAKTAALLAAHVAMLAILVLIRAIKEGDDEVRELAKTAIKLASTAAKIVLDALPTAEEVRQITLLAKLAEEAADKKNEDSALAVGIAAAAVLLALLALEAAQKAGIEEAEKGARLLLKLAMDAARKKNPEEALAVFNAALDVSIALKLLQSAKRAGSEETRKLAEEMLRQALERARK
notes: as for B1

Molecular target: the molecule itself
Assay: size-exclusion chromatography, self-association (homodimer)
Experimental: FIG. 7. Size exclusion chromatography (SEC) traces of purified SP apo-proteins. Proteins were injected as 0.5 mL aliquots onto a Superdex™ 200 Increase 10/300 GL column (Cytiva Life Sciences). The narrow, isolated peaks indicate that the samples contain monodisperse protein. Running buffer was 150 mM NaCl, 10 mM Tris at pH 8. Proteins were purified by Ni-NTA and one round of SEC prior to collecting the data shown.
Proteins were purified by Ni-NTA and size-exclusion chromatography (SEC) (FIG. 7). […] A slightly lower predicted radius of gyration (Rg) value compared to experimental SAXS data is likely due to a dense hydration shell around the highly charged SP proteins (Svergun et al. 1998; Kim et al. 2016). The far ultraviolet (UV) circular dichroism (CD) spectra of three SP proteins that expressed in high yield (≥140 mg/L) show the proteins are highly α-helical with and without the synthetic Chl a derivative, Zn pheophorbide a methyl ester (ZnPPaM). Thermal denaturation curves monitored by the CD signal at 222 nm indicate that all three proteins are highly thermostable in the apo- and holo-states (FIG. 2).

Binding result, binds:
B1, B2, B3, B4, B5, B6, B7, B8
